The record followed here is the DeepSol protein solubility set.

The data set can be described thus: soluble on expression in E. coli; label from the status in PepcDB or PDB records.
For the sequence “MGSDKIHHHHHHMPYERKIINDPVFGFINIPKGLLYDIVRHPLLQRLTRIKQVGLSSVVYPGAQHTRFQHSLGAFYLMSEAITQLTSKGNFIFDSEAEAVQAAILLHDIGHGPFSHVLEDTIVQGVSHEEISLMLMERMNKEMNGQLSLAIQIFKDEYPKRFLHQLVSGQLDMDRLDYLRRDSFYTGVTEGNIGSARIIKMLDVADDRLVIESKGIYSIENFLTARRLMYWQVYLHKTSVAYERMLISTLLRAKELASQGVELFASPALHFFLYNDINHTEFHNNPDCLENFIQLDDNDIWTALKVWSNHPDKVLSTLSLGMINRNIFKVENSAEPIGEDRIKELTLQISQQLGITLSEANYFVSTPSIEKNMYDPADDSIDIIYKDGTIKNIAEASDMLNISLLSKKVKKYYLCYQRLHR”, the “soluble on expression in E. coli” value is “not soluble”.
For “MGSDKIHHHHHHMQDLNDLYYFVQVVKHGGFAPAGRALGIPKSKLSRRITQLEERLDTRLIHRSTRRFSVTELGQAYYRHSVAMLVEAEAAEELIQRHHAEPQGTVRLSCSPSVLHYLITPLLVRFMARCPKVEVQVEATSRRVDVIKEGFDLAIRVRFPPLEDSDLTMKVLASSPQRLMAAPSLFAERPRPRSPADLVELPSLDFEQYDHRHCWDLVGPNGASAQVPHWPRLVTDSAETLHAAALEGLGVVKLGLLVGARDIQEGRLIDVLPGWEPRGGILHAAFPSRRGLLPAVRALLDFLDEQIADEDFDTQEALINSSPRG” the value was “not soluble”; for “MGSDKIHHHHHHMQERLIRLLEAIAGAANPPNATDLAQLTGLPRATIYRNISSLVDCGFVEVTDCGSRYVLGMRFVKIALTGKSDMHVINAVSAMMQQVVKTSGETGFLARYRGGRVDLIHIETPADPSLSYIYPGLGPRPAHACSSAKAIAAFITPELRDELLDIQPMRFNQNTITDPDQIQRELNQVRRYGYAICDGEIDEGVSSVAVPINVDRLGAIFSMGVVGPSNRIKPMVQNRILPVLSAEAVRAAAAIQHCSVVDAETTNAEALADAREGLNKTH”, “not soluble”.
For “MGSDKIHHHHHHMQFEPALQQGRLVKRYKRFLADIKLADGSEMTIHCPNTGSMRNCLFPGEAVWFSTSANPKRKYAYTWELMGTPNGGFIGIHSGSANALAEEAIHSGIIKELTGYDTLSREVKYGDENSRIDILLQGAQKPDCYIEVKSCTLLEDGQGFFPDAVSLRGQKHLRELMHMANLGHRAVLLFVVQHSEIFSVAPAAHIDHEYANLLKKATLSGVEVLAYRCEMSPTEIRLAQACPVRV” the value was “not soluble”; for “MGSDKIHHHHHHMQFTDAVTVAGTRRTADGYLVATARAVRTGIQLYAGHEVGKPDQEVVRVYRAADQVFSTESLQSFSHAPITVDHPDEEVSAENWKALSVGEVSTAAKQDGQWVMLPLILKDAAAIKSVMDGKRELSAGYTCDLDFTPGVTADGEPYDAQQRGIRINHLALVDRARAGSKARIGDDGGPWGAAPISTTDKETITMSDALRTVVVDGLSVTTTDQGAQAISKLLKDLESSAAKLVDAQTRYQAALAAKDADLAKAHAERDAANAKVLSDADLDKRVAARADLITKAKAIAKDVKTDGLSDSAIRKAAVTAALGDAAVRDKADAYIDARFDILVEDAAKKSGGADPFRQVVQNGLQTADNTNGAAAAHNAMVRDMSSAWMMKKEA”, “not soluble”.
As to “MGSDKIHHHHHHMQGRTPLLETLRELECEIRLLTVYARECCGCYEILRRKLDRLSGLIGEDCSRAQWQADSDDPALQALGLRLRDAAVQALCELEKHLCQGVLHEPGEMGRYLGSLLESIRGELDSAGIYAYARVLFVGSGALPTSALVLAREVGAHLCCLDIDEEALGCAREIARCQGLEARMQFSSLPPAELAFSRDATHFLIASLVQQKSAVLAQIRQVMRADAKVLLRHGSGIKGLFNYPVEPAELDGWRVCAERVSQPLYDTLILEKAGR”, the “soluble on expression in E. coli” value is recorded as “not soluble”.
On to “MGSDKIHHHHHHMQKLTRINDFNEVLNSRKSVKVFDENYKIPREEMDEIITKATKAPSSVNMQPWRIAVVQSDEMKEKVKESFGFNSRQLTTSSAMLIIFGDLQNYEKAEQIYGDAVEQQLMTEDIKAQLLDWILPYYKNLSREGMKDIVNIDSSLMAMQLMLTAKAHGYDTNPIGGFDKENIADIIGYDSDRYVPVLAIAIGKKAQDAHDSVRLPIDDVREFL”, for which the “soluble on expression in E. coli” value is “not soluble”.
For “MGSDKIHHHHHHMQLSKAAEMCYEITNSYLHIDQKSQIIASTQEAIRLTRKYLLSEIFVRWSPLNGEISFSYNGGKDCQVLLLLYLSCLWEYFFIKAQNSQFDFEFQSFPMQRLPTVFIDQEETFPTLENFVLETSERYCLSLYESQRQSGASVNMADAFRDFIKIYPETEAIVIGIRHTDPFGEALKPIQRTDSNWPDFMRLQPLLHWDLTNIWSFLLYSNEPICGLYGKGFTSIGGINNSLPNPHLRKDSNNPALHFEWEIIHAFGKDAEGERSSAINTSPISVVDKERFSKYHDNYYPGWYLVDDTLERAGRIKN” the value was “not soluble”; for “MGSDKIHHHHHHMQPHPETTPVTSCTIIDATDRSIRQTLGETSTLARLIWVDAGLASPPLCSGLARCGRCRVRITEAAPAPHEDDREFFSAEDISAGWRLACRHAPAHGMVVHVPLPVMPHRHASRPKHPGPFRLAVDLGTTSLQWSLLAPDGTVAAQGSETNPQMGAGSDVMSRIAMARSDKGRGRLRELVLQALRRIVADVEGTPATADAVPPAGSGDEPTTACGYESRVEELCVAGNTAMTAILADESVEGLASAPYRLEMRGGTALALPGLPPAWIPPLPAPFVGGDLSAGYLAVLTDHAPAFPFVLADLGTNGEFVLALSPERTLVTSVALGPALEGIGLTFGTVAQRGAITSFTLTPGGLVPYVLDGGEADGISGTGYISLVHALLRAGLLDVDGRFIQSPSSPLAARMARSIVSHRGEPCLPLARGLYLAARDIEEILKVKAAFSLAFERLLATAQMPSHALSGIHLAGALGQHALPADLEGLGFIPPGSGGRTRAVGNTSLRGAELLLTSPPLRDTLNTWREGCTVVDLTAAPDFSAAFLRHMHFHF”, “not soluble”; for “MGSDKIHHHHHHMQQVISDIMTFRGSHFELGVKTGKWLQQTPLLKNREKEWKKRVPRFDIDVNETYQIFQTYAPQIWEELMGLQSILKMPTRQIILNFGHYRFTDLKESGCTVFQGKDFMVRNYDYHPATYDGRYLLYQPTDSGLAQIGPVSRVTGRMDGMNESGLTMGYNFMHRKKPANGFVCYMIGRLILENCRNVTEAIQLLKEIPHRSSFSYILMDKSLNHAIVEVTPRSIDVRYDNICTNHFEILTHENRNYTKESKERLARTISQTNDNLDMTTAFKLFNNPQYEIYSKLFKSWSGTIHTSMYQPETLTAYFTLGENAPPEIIDFKSWLDGQDLNITHFTGNIDTDLTFANK”, “not soluble”.
For “MGSDKIHHHHHHMQSALWVSKTGLAAQDTKMTTIANNLANVNTTGFKRDRVAFNDLFYQVQRQPGGQVDELNQLPSGLQLGTGTRVAGTQKVFTTGDVHNTSQQLDLAIEGNGFFQVEEPNGDLAYTRDGQFYRSSEGMMVTSQGLPLVPNIVIPEDSTNITIATDGIVMATIAGDAEPQELGQITLINFTNPAGLEARGNNLYRETAASGVAVEGVAGDQALGGLRQGSLEGSNVNVVEEMVEMISTQRAYEMNAKVVSASDDMLKFLNQSV” the value was “not soluble”.
With “MGSDKIHHHHHHMQTDKIFYSLFQAFTSIFFAIIGEADINPSTYEFVSVELKETAFRIDGVFKPVNETTEEPLYFVEVQFQLDPKFYRRFFAEIFLYLRQNPSVNFWRAVVIYPQRIIEPDDQQPYRSILDSSQIQRIYLDELGTANENSLQLAIMQLIIASEAIAIDQGRQLIIQARQELTDEANKKQIVELIETILLYKFTNLSREEVAAMLGIDDEFKKTRMYQSIKEDGLEEGRQEGRQQGIQEGRQEGRLQAKLEAIPRLLALGLSVEQIASALDLSIEQVQQVTGN” the entry was “not soluble”.
“MGSDKIHHHHHHMQTFLKGKRVGYWLSEKKIKKLNFQAFAELCRKRGMEVVQLNLSRPIEEQGPLDVIIHKLTDVILEADQNDSQSLELVHRFQEYIDAHPETIVLDPLPAIRTLLDRSKSYELIRKIEAYMEDDRICSPPFMELTSLCGDDTMRLLEKNGLTFPFICKTRVAHGTNSHEMAIVFNQEGLNAIQPPCVVQNFINHNAVLYKVFVVGESYTVVQRPSLKNFSAGTSDRESIFFNSHNVSKPESSSVLTELDKIEGVFERPSDEVIRELSRALRQALGVSLFGIDIIINNQTGQHAVIDINAFPGYEGVSEFFTDLLNHIATVLQGQSTAMAATGDVAL”: the “soluble on expression in E. coli” value is “soluble”.
With “MGSDKIHHHHHHMQVIIVEDEKTLRFSPLADLKPVYDLVTGCFSLRQRFVEALGARQKLTWHLRRHIAPWFAEANPGSVVNRVLEDEVLLVNGRLICDAAVTQFIDARKIAPGEALIQNGNLLFCRTTAEPLHVLETVFPDTIDGMVLAGAFSCVEVSGFRLIENLWDPVAMHPAMMREDGAALALGRIEGEVHPSAILVNPSAITVEKGAEVKAGAVLDASDGFIYIGAGAVVEPVALLMENVYIAPGARVKSGARIYSNVCIGGGAKAGGEIEDSIMEPFSNKQHDGFLGHSYISSWCNLGAGTDTSDLKNNYSPVSIETAHGKMATGQQFLGLLMGEHSKCSIGTRFNTGTVVGISSNIFGNGMPAKYVPSFSWGDGNPGTARYEADKAVETARKVMARRKVEMSAAYEAMFRAVAGE” the entry was “not soluble”.
For “MGSDKIHHHHHHMRAKELQDWFPEARISDQPVEKEGYLTLPLASQQWILLEEAGLSEREKQLVALLTQQEQARSLNPWYSYLVEGKGQAPQVFKKIQLVYCHLSYFQQENLASWLDMMRTLFPNCQTVLQVGAQDYVFVLQQDKYTSVRDILSDTIEAVEYDFGLRLSIMLGQVWSQTGHQALSDLIKAERDLFKTWWRQGHQGVHTFSQLYLWSMGERLVDLKPIKECLHQMILDQDQIQEIILSLWENSAVLTKTAQQLYLHRNSLQYKIDKWEELTGLQLKELTDLTLCYQLILGSLSTIVGL” the value was “not soluble”; for “MGSDKIHHHHHHMRASVLSDWLAQRLDRGNGQPIYRQLHRLLQQAILTRELPPGSKVPSSRLLAQELGIGRNTVTQVYEQLVLEGYVSSATGRGTFVADSAPDEIVGVPDAAAPDTSAESSPQQAKRALSTRGARLIAGAGVSKRQWGAFMPGVPDVTKFPARVWSRLHNKYWRRLRPDLLTYAPGGGLASLRHALADYLRTSRSVRCTPEQIIITTGIHQSVDLAVRLLSDPGDVIWTEDPCYWGVRSVLHVSGLQSRPIAVDEEGINPSADDLAQPPKLMLVTPSHQYPLGMVMSLARRRMLLEYARQNQCWIIEDDYDSEYRYGSRPLASLQGLDTSGQVIYVGSFGKTLFPGLRIGYLVVPEALAESFATASAELYREGQLLQQAMLAEFIAEGHFTSHIRRMRTLYGQRRQTLLDAAAHRYGDALPAVGGDAGLHLVMQLPEGSDDRQVAATALERNIVVRPLSGYYAQPSLAPSGLLIGYACVPDEEIAPAFNTLADAIDVTLPEFA”, “not soluble”.
With “MGSDKIHHHHHHMRATLKIAEPPVVSPSEDELRELENLYCSHGDTVHYTDKPKFFEGCEGSFVYDASQTPFLDLQMWYSAVNFGYRNERLNNAAHRQLDQLPQVASQYLHREKVELAALIARDAEQKFGHKGRVHFNVGGSQAVEDSLKLVRNFTGGKSLMFAFEGGYHGRTLGASAITSSYRYRRRYGHFSDRAQFIEFPYHFRGPKGMSKEEYGEVCVQKFARLFESEYNGVWDPKAGKSEYAAFYVEPIQGTGGYVIPPMNFFTGLKKVLDDHGILLVVDEIQMGVYRTGKLWSIEHFGVSPDVLVFGKAITNGLNPLSGIWAREEMINPTIFPPGSTHSTFASNPMGTAVALETMKMVGEGDFGASVMEKGARFLDGLKVLEKRHAIVGDVDGLGLALRMEICKEDGFTPDKATLDWMSDEGMKGDMVVDGKTYGLVLDVGGYHKNVITLAPNLMISNSEIDLALTLLDQLLTRAARR” the entry was “not soluble”.
